Results taken from IntAct's records for PubMed 23452855.

B1: F-box/LRR-repeat protein 21 (Mus musculus), Q8BFZ4 (parent)
chain: MKRNNFSAVNKVVQSSPVVKQPKRGLCSSLRQTHALSVLLDWGTLPHHVILQIFQYLPLIDRARASSVCRRWNEVFHIPDLWRKFEFELNQSATSYFKSTHPDLIQQIIKKHAAHLQYVSFKVDSSTESAEAACDILSQLVNCSIQTLGLISTAKPSFMNVPKSHFVSALTVVFVNSKSLSSIKIEDTPVDDPSLKILVANNSDTLRLLKMSSCPHVSSDGILCVADHCQGLRELALNYYILSDEILLALSSETHVNLEHLRIDVVSENPGQIKFHSIKKRSWDALIKHSPRVNVVMYFFLYEEEFEAFFKEETPVTHLYFGRSVSRAILGRIGLNCPRLIELVVCANGLLPLDSELIRIAKHCKNLTSLGLSECEVSCSAFVEFVRLCGRRLTQLSIMEEVLVPDDRYTPDEVHTEVSKHLGRVWFPDVMPIW
partner: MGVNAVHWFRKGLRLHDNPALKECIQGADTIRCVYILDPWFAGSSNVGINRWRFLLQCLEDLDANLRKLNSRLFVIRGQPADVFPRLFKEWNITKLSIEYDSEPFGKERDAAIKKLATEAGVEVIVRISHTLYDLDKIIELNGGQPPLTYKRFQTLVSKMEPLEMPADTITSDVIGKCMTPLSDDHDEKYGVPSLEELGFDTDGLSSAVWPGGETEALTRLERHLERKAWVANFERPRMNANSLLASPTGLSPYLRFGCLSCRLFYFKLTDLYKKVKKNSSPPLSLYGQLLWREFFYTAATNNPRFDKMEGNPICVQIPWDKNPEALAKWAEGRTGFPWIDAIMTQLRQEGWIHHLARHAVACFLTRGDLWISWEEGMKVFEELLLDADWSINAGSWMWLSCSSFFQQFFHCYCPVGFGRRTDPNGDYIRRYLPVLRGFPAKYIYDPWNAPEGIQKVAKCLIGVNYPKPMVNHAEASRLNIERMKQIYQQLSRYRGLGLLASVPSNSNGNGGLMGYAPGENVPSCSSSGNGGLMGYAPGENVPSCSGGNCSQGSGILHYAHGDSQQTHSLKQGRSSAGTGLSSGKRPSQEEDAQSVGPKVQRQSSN

Variants of: B1
Conditions: with cry1_mouse Cry1, P97784

Variant	effect of a mutation on the interaction
MKRNNFSAVNKVVQSSPVVKQPKRGLCSSLRQTHALSVLLDWGTLPHHVILQIFQYLPLIDRARASSVCRRWNEVFHIPDLWRKFEFELNQSATSYFKSTHPDLIQQIIKKHAAHLQYVSFKVDSSTESAEAACDILSQLVNCSIQTLELISTAKPSFMNVPKSHFVSALTVVFVNSKSLSSIKIEDTPVDDPSLKILVANNSDTLRLLKMSSCPHVSSDGILCVADHCQGLRELALNYYILSDEILLALSSETHVNLEHLRIDVVSENPGQIKFHSIKKRSWDALIKHSPRVNVVMYFFLYEEEFEAFFKEETPVTHLYFGRSVSRAILGRIGLNCPRLIELVVCANGLLPLDSELIRIAKHCKNLTSLGLSECEVSCSAFVEFVRLCGRRLTQLSIMEEVLVPDDRYTPDEVHTEVSKHLGRVWFPDVMPIW [G149E]	decreasing interaction strength
